# Data from publication PMC12416549 (2024).
# T1: TNFR1 (Homo sapiens, UniProt P19438)
# T1 chain: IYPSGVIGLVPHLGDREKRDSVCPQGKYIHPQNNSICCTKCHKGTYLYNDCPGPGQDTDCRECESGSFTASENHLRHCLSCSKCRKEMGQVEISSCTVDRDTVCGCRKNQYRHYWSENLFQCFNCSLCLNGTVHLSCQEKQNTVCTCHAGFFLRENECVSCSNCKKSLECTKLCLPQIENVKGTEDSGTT
# Target: T1, TNFR1
# Assay: yeast display SC50
row,Binder,apparent Kd (screen)
1,T97I (designed binder) SMEEEVEKAAKEYEKKKKEAIEKHLEKLKAKDKEAAERFLKELEEAAKEYAKDEAKTMSEEEAKRRAKKYKEKVLLSELSEEEQKEIKEAEEKLVRIILKYVEEAAK,2.05 nM
2,F39R (designed binder) SMEEEVEKAAKEYEKKKKEAIEKHLEKLKAKDKEAAERRLKELEEAAKEYAKDEAKTMSEEEAKRRAKKYKEKVLLSELSEEEQKEIKEAEEKLVRTILKYVEEAAK,5.84 nM
3,T57H (designed binder) SMEEEVEKAAKEYEKKKKEAIEKHLEKLKAKDKEAAERFLKELEEAAKEYAKDEAKHMSEEEAKRRAKKYKEKVLLSELSEEEQKEIKEAEEKLVRTILKYVEEAAK,0.277 nM
4,K71V (designed binder) SMEEEVEKAAKEYEKKKKEAIEKHLEKLKAKDKEAAERFLKELEEAAKEYAKDEAKTMSEEEAKRRAKKYVEKVLLSELSEEEQKEIKEAEEKLVRTILKYVEEAAK,0.446 nM
5,E83D (designed binder) SMEEEVEKAAKEYEKKKKEAIEKHLEKLKAKDKEAAERFLKELEEAAKEYAKDEAKTMSEEEAKRRAKKYKEKVLLSELSEEDQKEIKEAEEKLVRTILKYVEEAAK,1.16 nM
6,K93V (designed binder) SMEEEVEKAAKEYEKKKKEAIEKHLEKLKAKDKEAAERFLKELEEAAKEYAKDEAKTMSEEEAKRRAKKYKEKVLLSELSEEEQKEIKEAEEVLVRTILKYVEEAAK,1.16 nM
7,Q84I (designed binder) SMEEEVEKAAKEYEKKKKEAIEKHLEKLKAKDKEAAERFLKELEEAAKEYAKDEAKTMSEEEAKRRAKKYKEKVLLSELSEEEIKEIKEAEEKLVRTILKYVEEAAK,2.73 nM
8,E78Y (designed binder) SMEEEVEKAAKEYEKKKKEAIEKHLEKLKAKDKEAAERFLKELEEAAKEYAKDEAKTMSEEEAKRRAKKYKEKVLLSYLSEEEQKEIKEAEEKLVRTILKYVEEAAK,0.446 nM
9,V6R (designed binder) SMEEEREKAAKEYEKKKKEAIEKHLEKLKAKDKEAAERFLKELEEAAKEYAKDEAKTMSEEEAKRRAKKYKEKVLLSELSEEEQKEIKEAEEKLVRTILKYVEEAAK,0.653 nM
10,E37W (designed binder) SMEEEVEKAAKEYEKKKKEAIEKHLEKLKAKDKEAAWRFLKELEEAAKEYAKDEAKTMSEEEAKRRAKKYKEKVLLSELSEEEQKEIKEAEEKLVRTILKYVEEAAK,0.49 nM
11,R96L (designed binder) SMEEEVEKAAKEYEKKKKEAIEKHLEKLKAKDKEAAERFLKELEEAAKEYAKDEAKTMSEEEAKRRAKKYKEKVLLSELSEEEQKEIKEAEEKLVLTILKYVEEAAK,0.718 nM
12,K27Y (designed binder) SMEEEVEKAAKEYEKKKKEAIEKHLEYLKAKDKEAAERFLKELEEAAKEYAKDEAKTMSEEEAKRRAKKYKEKVLLSELSEEEQKEIKEAEEKLVRTILKYVEEAAK,0.593 nM
13,L94Y (designed binder) SMEEEVEKAAKEYEKKKKEAIEKHLEKLKAKDKEAAERFLKELEEAAKEYAKDEAKTMSEEEAKRRAKKYKEKVLLSELSEEEQKEIKEAEEKYVRTILKYVEEAAK,0.446 nM
14,K31D (designed binder) SMEEEVEKAAKEYEKKKKEAIEKHLEKLKADDKEAAERFLKELEEAAKEYAKDEAKTMSEEEAKRRAKKYKEKVLLSELSEEEQKEIKEAEEKLVRTILKYVEEAAK,0.956 nM
15,L75G (designed binder) SMEEEVEKAAKEYEKKKKEAIEKHLEKLKAKDKEAAERFLKELEEAAKEYAKDEAKTMSEEEAKRRAKKYKEKVGLSELSEEEQKEIKEAEEKLVRTILKYVEEAAK,0.368 nM
16,E12F (designed binder) SMEEEVEKAAKFYEKKKKEAIEKHLEKLKAKDKEAAERFLKELEEAAKEYAKDEAKTMSEEEAKRRAKKYKEKVLLSELSEEEQKEIKEAEEKLVRTILKYVEEAAK,0.539 nM
17,E12L (designed binder) SMEEEVEKAAKLYEKKKKEAIEKHLEKLKAKDKEAAERFLKELEEAAKEYAKDEAKTMSEEEAKRRAKKYKEKVLLSELSEEEQKEIKEAEEKLVRTILKYVEEAAK,0.49 nM
18,R96W (designed binder) SMEEEVEKAAKEYEKKKKEAIEKHLEKLKAKDKEAAERFLKELEEAAKEYAKDEAKTMSEEEAKRRAKKYKEKVLLSELSEEEQKEIKEAEEKLVWTILKYVEEAAK,2.05 nM

row,Binder,apparent Kd (screen)
1,S77M (designed binder) SMEEEVEKAAKEYEKKKKEAIEKHLEKLKAKDKEAAERFLKELEEAAKEYAKDEAKTMSEEEAKRRAKKYKEKVLLMELSEEEQKEIKEAEEKLVRTILKYVEEAAK,1.4 nM
2,E26W (designed binder) SMEEEVEKAAKEYEKKKKEAIEKHLWKLKAKDKEAAERFLKELEEAAKEYAKDEAKTMSEEEAKRRAKKYKEKVLLSELSEEEQKEIKEAEEKLVRTILKYVEEAAK,1.05 nM
3,K11L (designed binder) SMEEEVEKAALEYEKKKKEAIEKHLEKLKAKDKEAAERFLKELEEAAKEYAKDEAKTMSEEEAKRRAKKYKEKVLLSELSEEEQKEIKEAEEKLVRTILKYVEEAAK,0.49 nM
4,L76C (designed binder) SMEEEVEKAAKEYEKKKKEAIEKHLEKLKAKDKEAAERFLKELEEAAKEYAKDEAKTMSEEEAKRRAKKYKEKVLCSELSEEEQKEIKEAEEKLVRTILKYVEEAAK,3 nM
5,A35I (designed binder) SMEEEVEKAAKEYEKKKKEAIEKHLEKLKAKDKEIAERFLKELEEAAKEYAKDEAKTMSEEEAKRRAKKYKEKVLLSELSEEEQKEIKEAEEKLVRTILKYVEEAAK,0.539 nM
6,A46H (designed binder) SMEEEVEKAAKEYEKKKKEAIEKHLEKLKAKDKEAAERFLKELEEHAKEYAKDEAKTMSEEEAKRRAKKYKEKVLLSELSEEEQKEIKEAEEKLVRTILKYVEEAAK,1.16 nM
7,Y13R (designed binder) SMEEEVEKAAKEREKKKKEAIEKHLEKLKAKDKEAAERFLKELEEAAKEYAKDEAKTMSEEEAKRRAKKYKEKVLLSELSEEEQKEIKEAEEKLVRTILKYVEEAAK,12.5 nM
8,L79Q (designed binder) SMEEEVEKAAKEYEKKKKEAIEKHLEKLKAKDKEAAERFLKELEEAAKEYAKDEAKTMSEEEAKRRAKKYKEKVLLSEQSEEEQKEIKEAEEKLVRTILKYVEEAAK,2.48 nM
9,F39Y (designed binder) SMEEEVEKAAKEYEKKKKEAIEKHLEKLKAKDKEAAERYLKELEEAAKEYAKDEAKTMSEEEAKRRAKKYKEKVLLSELSEEEQKEIKEAEEKLVRTILKYVEEAAK,1.4 nM
10,E26M (designed binder) SMEEEVEKAAKEYEKKKKEAIEKHLMKLKAKDKEAAERFLKELEEAAKEYAKDEAKTMSEEEAKRRAKKYKEKVLLSELSEEEQKEIKEAEEKLVRTILKYVEEAAK,0.539 nM
11,E19G (designed binder) SMEEEVEKAAKEYEKKKKGAIEKHLEKLKAKDKEAAERFLKELEEAAKEYAKDEAKTMSEEEAKRRAKKYKEKVLLSELSEEEQKEIKEAEEKLVRTILKYVEEAAK,0.49 nM
12,E44M (designed binder) SMEEEVEKAAKEYEKKKKEAIEKHLEKLKAKDKEAAERFLKELMEAAKEYAKDEAKTMSEEEAKRRAKKYKEKVLLSELSEEEQKEIKEAEEKLVRTILKYVEEAAK,0.956 nM
13,Y13K (designed binder) SMEEEVEKAAKEKEKKKKEAIEKHLEKLKAKDKEAAERFLKELEEAAKEYAKDEAKTMSEEEAKRRAKKYKEKVLLSELSEEEQKEIKEAEEKLVRTILKYVEEAAK,7.07 nM
14,K8G (designed binder) SMEEEVEGAAKEYEKKKKEAIEKHLEKLKAKDKEAAERFLKELEEAAKEYAKDEAKTMSEEEAKRRAKKYKEKVLLSELSEEEQKEIKEAEEKLVRTILKYVEEAAK,0.593 nM
15,R66N (designed binder) SMEEEVEKAAKEYEKKKKEAIEKHLEKLKAKDKEAAERFLKELEEAAKEYAKDEAKTMSEEEAKRNAKKYKEKVLLSELSEEEQKEIKEAEEKLVRTILKYVEEAAK,16.7 nM
16,E104N (designed binder) SMEEEVEKAAKEYEKKKKEAIEKHLEKLKAKDKEAAERFLKELEEAAKEYAKDEAKTMSEEEAKRRAKKYKEKVLLSELSEEEQKEIKEAEEKLVRTILKYVENAAK,0.718 nM
17,F39P (designed binder) SMEEEVEKAAKEYEKKKKEAIEKHLEKLKAKDKEAAERPLKELEEAAKEYAKDEAKTMSEEEAKRRAKKYKEKVLLSELSEEEQKEIKEAEEKLVRTILKYVEEAAK,4.83 nM
